Measured values: publication PMC5105191
Where two headings read alike, the source gives them in different places.

How the values were obtained:
[1] = target: FITC–PHC2_(32–61) (human); experiment: fluorescence polarisation; 20 nM fluorescein-labelled PHC2 32-61 titrated with BMI1 UBL variants or MEL18 UBL; 50 mM bis tris pH 7.5, 50 mM NaCl, 1 mM TCEP, 0.01% BSA, 0.25% tween-20; 1 h incubation
[2] = target: BMI1_(121–235), BMI1 UBL domain, wild type (UniProt P35226); experiment: ITC; VP-ITC, 25 °C, 50 mM phosphate pH 6.5, 50 mM NaCl, 1 mM TCEP; BMI1 121-235 in the cell (22 or 9 μM), titrated with trx-PHC2 1-79 (164 μM) or PHC2 33-56 (100 μM)
[3] = target: FITC–PHC2_(32–61) (human); experiment: fluorescence polarisation; 20 nM fluorescein-labelled PHC2 32-61 titrated with BMI1 UBL variants or MEL18 UBL; 50 mM bis tris pH 7.5, 50 mM NaCl, 1 mM TCEP, 0.01% BSA, 0.25% tween-20; 1 h incubation; remark: listed apart in the source

BMI1 UBL domain M170E (from UniProt P35226 121-235) (domain or fragment)
Kd [1]: 17 µM

BMI1 UBL domain F189Q (from UniProt P35226 121-235) (domain or fragment)
Kd [1]: 0.409 µM

BMI1 UBL domain R165E (from UniProt P35226 121-235) (domain or fragment)
Kd [1]: 5.9 µM

BMI1 UBL domain R165E/H174E double mutant (from UniProt P35226 121-235) (domain or fragment)
Kd [1]: > 50 µM

trx-PHC2_(1–79) (domain or fragment)
Kd [2]: 398 nM | stoichiometry N [2]: 1

BMI1_(121–235), BMI1 UBL domain, wild type (from UniProt P35226 121-235) (domain or fragment)
Kd [1]: 0.215 µM

PHC2_(33–56) peptide
Kd [2]: 413 nM

BMI1 UBL domain H174E (from UniProt P35226 121-235) (domain or fragment)
Kd [1]: 20.1 µM

BMI1 UBL domain I212E (from UniProt P35226 121-235) (domain or fragment)
Kd [1]: 1.04 µM

B1: MEL18_(121-237) fragment, MEL18 UBL domain (domain or fragment)
chain: EKGALSDDEIVSLSIEFYEGARDRDEKKGPLENGDGDKEKTGVRFLRCPAAMTVMHLAKFLRNKMDVPSKYKVEVLYEDEPLKEYYTLMDIAYIYPWRRNGPLPLKYRVQPACKRLT
Kd [3]: 812 nM
